Assay results taken from patent publication US20060241040A1 (published 2006).

B1: endogenous soluble MD-2 in serum of healthy human donors (ligand)
chain: QKQYWVCNSSDASISYTYCDKMQYPISINVNPCIELKGSKGLLHIFYIPRRDLKQLYFNLYITVNTMNLPKRKEVICRGSDDDYSFCRALKGETVNTTISFSFKGIKFSKGKYKCVVEAISGSPEEMLFCLEFVILHQPNSN
notes: Natural protein in serum; also called sMD-2; serum MD-2
B2: C-terminally 6×His tagged human MD-2, baculovirus-derived (Sf9 insect cells), purified (ligand)
chain: QKQYWVCNSSDASISYTYCDKMQYPISINVNPCIELKGSKGLLHIFYIPRRDLKQLYFNLYITVNTMNLPKRKEVICRGSDDDYSFCRALKGETVNTTISFSFKGIKFSKGKYKCVVEAISGSPEEMLFCLEFVILHQPNSNHHHHHH
notes: Purified from supernatants (secreted); also called MD-2^6xHis; MD-2^6×His

Legend:
[1] = molecular target: T1, TLR4:Fc fusion protein (entire extracellular domain of hTLR4, amino acids 1-632, fused to the Fc portion of … (human; mouse, UniProt P01863 98-330 = IgG part); test: depletion of human serum with TLR4:Fc loaded protein A beads, read out on NF-κB reporter cells (FIG. 6A)
T1 construct: domain: C-terminal 233 amino acid Fc portion; Secreted by retrovirally transduced HEK293 cells; also called T4:Fc; TLR4:Fc chimera
Description: Human serum was collected from healthy volunteers using standard serum Vacutainers™ blood collection tubes (Becton Dickinson) and clotted for 30 minutes at room temperature. The blood clot was removed by centrifugation and serum stored at −20° C. in 1 ml aliquots until use. MD-2 was removed from serum using immunoaffinity techniques using chimeric antibody-like proteins bound to protein A Sepharose™ beads (PAS). Human antibodies can potentially compete with the TLR chimeras for binding sites on protein A beads. Therefore, they were removed from serum by two preclearing steps, of two hours each, with 1/10 the volume of packed PAS beads.
HEK293 cells that had been transduced with retrovirus encoding the TLR:Fc fusion proteins were grown in protein free medium and served as the source of conditioned medium. TLR4:Fc and TLR2:Fc were captured from 50-100 ml of medium using 40 μl of packed PAS/ml for one hour at 4° C. Coated beads were then added to sera that had been precleared with PAS alone for 1 hour at 4° C. Human serum was diluted in DMEM to a final concentration of 20% v/v before use on reporter cells. Before each conjugation/treatment step, the beads were washed with 20% ethanol in PBS followed by equilibration in DMEM. Reconstitution with MD-2 was performed by adding the indicated amounts of recombinant purified MD-2 to the TLR4:Fc depleted stimulating media. […]

[2] = molecular target: T1, TLR4:Fc fusion protein (entire …); test: indirect ELISA-like assay: TLR4:Fc captured on protein A coated plate, MD-2 titrated 0.1 to 50 nM, Ni-HRP detection, absorbance at 450 nm; without LPS (dotted line)
Description: FIG. 4A is a line graph of MD-2^6xHis binding to TLR-4:Fc. MD-2^6xHis was added in titrated amounts (0.1 to 50 nM). To control for non-specific binding to protein A, 50 nM of MD-2 was plated in the absence of TLR4:Fc (“50”). […] The apparent […] of this interaction is of ˜12 nM.
To determine the Kd for the interaction between TLR4 and MD-2, an indirect ELISA-like binding assay was developed. Fifty μl of purified TLR4:Fc at 20 μg/ml (FIG. 4A) or at the concentration indicated in FIG. 4B was plated on protein A coated, high-protein binding 96 well plates. […] MD-2 bound to TLR4:Fc was detected using Ni-HRP (1:2,000 in PBS-Tween, Sigma), and developed by incubation with its chromogenic substrate per the manufacturer's instructions (DAKO, Carpinteria, Calif.). Each condition was measured in triplicate; the absorbance of each sample was measured at 450 nm; the results are presented as the average reading±SD.
In FIG. 4A, saturating amounts of TLR4:Fc were adsorbed to protein A coated 96 well plates and purified soluble MD-2 was added in titrated amounts. The 6×His tag present at the C terminus of MD-2 was detected using a Ni based HRP labeled reagent, and the presence of MD-2 bound to TLR4 was detected using a chromogenic substrate. […]

T1 sequence (P01863 other isoform, or with tags, fused parts or gaps limits assumed): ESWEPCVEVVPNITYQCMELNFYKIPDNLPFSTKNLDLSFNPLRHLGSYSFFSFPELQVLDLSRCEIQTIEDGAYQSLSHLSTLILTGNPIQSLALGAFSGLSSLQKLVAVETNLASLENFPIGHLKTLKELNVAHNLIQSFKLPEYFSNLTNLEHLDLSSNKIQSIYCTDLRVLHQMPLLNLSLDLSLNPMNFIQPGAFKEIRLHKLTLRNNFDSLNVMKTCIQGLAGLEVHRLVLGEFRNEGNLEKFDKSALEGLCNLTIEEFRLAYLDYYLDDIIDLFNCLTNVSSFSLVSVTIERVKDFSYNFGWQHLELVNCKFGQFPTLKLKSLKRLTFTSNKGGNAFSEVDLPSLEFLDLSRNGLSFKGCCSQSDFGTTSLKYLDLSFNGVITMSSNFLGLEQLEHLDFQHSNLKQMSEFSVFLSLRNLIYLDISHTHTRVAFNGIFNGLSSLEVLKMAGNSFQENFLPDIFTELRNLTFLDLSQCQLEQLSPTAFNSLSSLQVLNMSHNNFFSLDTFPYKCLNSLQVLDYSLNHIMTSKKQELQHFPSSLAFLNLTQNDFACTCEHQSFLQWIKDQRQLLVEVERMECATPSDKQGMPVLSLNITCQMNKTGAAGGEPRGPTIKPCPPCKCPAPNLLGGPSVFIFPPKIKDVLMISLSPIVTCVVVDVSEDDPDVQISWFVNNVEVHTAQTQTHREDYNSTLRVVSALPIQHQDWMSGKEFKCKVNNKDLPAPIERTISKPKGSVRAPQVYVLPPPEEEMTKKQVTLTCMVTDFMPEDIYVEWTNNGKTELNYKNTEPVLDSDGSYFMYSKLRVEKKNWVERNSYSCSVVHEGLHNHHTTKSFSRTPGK

Row | Binder | binding result [1] | Kd [2] [nM]
1 | B1 | binds | –
2 | B2 | – | ~12
